Measurements from US20260132208A1 (DOMAIN THERAPEUTICS, published 2026).
Changes are numbered by the printed parent chain. Values joined by “and” are separate entries in the source; they are usually repeats but may differ in a detail not shown here. Identical values can stand only once.

B1: anti-CCR8 mAb 1-2 (antibody, V domains shown)
VH: EVQLVESGGGLVQPKGSLKLSCAASGFTFNTYAMNWVRQAPGKGLEWVARIRSKSNNYATYYADSVKDRFTISRDDSQSMLYLQMNNLKTEDTAMYYCVRGREAYYRYDGGYYAMDYWGQGTSVTVSS
VL: DIVMTQAAPSVPVTPGESVSISCRSSKSLLHSNGNTYLYWFLQRPGQSPQLLIYRMSNLASGVPDRFSGSGSGTAFTLRISRVEAEDVGVYYCMQHLEYPFTFGSGTKLEIK
notes: Murine hybridoma mAb
B2: anti-CCR8 mAb 1-1 (antibody, V domains shown)
VH: B1 VH with V5L, T31P, K43R, S79D, G111D
VL: B1 VL
notes: Murine hybridoma mAb
B3: anti-CCR8 mAb 1-10 (antibody, V domains shown)
VH: EVQLQQSGPELVKPGASVKISCKTSGYTFTEYTIHWVKQSHGESLEWVGGINPNNGNTRYDQKFKGKATLTIDKSSSPAYMELRSLTSEDSAVYYCARVARSSGSGPYAMDYWGQGTSVTVSS
VL: DVVMTQTPLSLPVSLGDQASISCRCTQSLLHTNGDTYLHWYLQKPGQSPKLLIYKVSNRFSGVPDRFSGSGSGTDFTLKISRVEAEDLGVYFCSQSTHVPYTFGGGTKLEIK
notes: Murine hybridoma mAb
B4: anti-CCR8 mAb 1-11 (antibody, V domains shown)
VH: QVQLQQPGAELVKPGASVKMSCKATGYTFTGYNMHWVKQTPGQGLEWIGAISPGKGDTSYNLKFKGKATLTTDKSSSTAYMQLSSLTSADSAVYYCARSGGTPFAYWGQGTLVTVSA
VL: B3 VL with C25S, T26S, L30V, T32S, H39Y, S81N
notes: Murine hybridoma mAb
B5: anti-CCR8 mAb 1-15 (antibody, V domains shown)
VH: EVQLQQSGPELVKPGASVKISCKTSGYTFTEYTMHWVKQSHGKSLEWIGGINPNNGDTNYNQKFMGKATLTVDKSSSTAYMELRSLTSEDSAVYYCVRRLLRRGAMDYWGQGTSVTVSS
VL: DIVLTQSPASLAVSLGQRATISCRASENVEYYGTSLMQWFQQKPGQPPKLLIYAASNVDSGVPARFSGSGSGTDFSLNIHPVEEDDIAMYFCQQSRKVPWTFGGGTKLDIK
notes: Murine hybridoma mAb

Biological target: T1, human CCR8 (human, UniProt P51685 1-355)
Assay: cell-based or functional assay

| Binder | IC50 of CCL1-induced hCCR8 Gi2 signaling (BRET), pH 6.5 | IC50 of CCL1-induced hCCR8 Gi2 signaling (BRET), pH 7.4 |
| --- | --- | --- |
| B1 | 0.03 µg/ml and 0.198 nM | 0.031 µg/ml and 0.21 nM |
| B2 | 0.021 µg/ml and 0.143 nM | 0.024 µg/ml and 0.163 nM |

Biological target: T2, pm6 (Y16 and Y17 sulfated; Y15 not sulfated)
T2 construct: also called sulfated CCR8 N-terminal peptide pm6
T2 sequence (peptide, as listed by the source): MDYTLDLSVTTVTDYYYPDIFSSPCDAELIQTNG
Assay: ELISA on coated peptide [cont.]
Method: (§1) The specific binding properties of antibodies were evaluated by ELISA with coated CCR8 related peptides (500 ng/ml) in carbonate/bicarbonate buffer. Different peptides were used as described in Table 1 (see Example 1). Each anti-CCR8 mAb was tested at 1 μg/mL then diluted at 1/10. After an incubation at room temperature during 90 min, unbound mAbs were removed by washings. […] After washings, 3,3′,5,5′-tetramethylbenzidine (TMB) (Interchim, Montluçon, France) was added for 15 min. Then the optical density (OD) was determined by using a multiplate reader (Tecan, Lyon, France) and correlated with mAb reactivity on the panel of coated peptides.

| Binder | binding result |
| --- | --- |
| B3 | binds |
| B4 | binds |
| B1 | binds |
| B2 | binds |
| B5 | binds |

Biological target: T3, pm3 (Y17 sulfated; Y15 and Y16 not sulfated)
T3 construct: also called sulfated CCR8 N-terminal peptide pm3
T3 sequence (peptide, as listed by the source): as above
Assay: ELISA on coated peptide [cont.]
Method: as §1

| Binder | binding result |
| --- | --- |
| B3 | binds |
| B4 | binds |
| B1 | binds |
| B2 | binds |
| B5 | binds |

Biological target: T4, pm5 (Y15 and Y17 sulfated; Y16 not sulfated)
T4 construct: also called sulfated CCR8 N-terminal peptide pm5
T4 sequence (peptide, as listed by the source): as above
Assay: ELISA on coated peptide [cont.]
Method: as §1

| Binder | binding result |
| --- | --- |
| B3 | binds |
| B4 | binds |
| B1 | binds |
| B2 | binds |
| B5 | binds |

Biological target: T5, pm8 (Y15, Y16 and Y17 sulfated)
T5 construct: also called sulfated CCR8 N-terminal peptide pm8
T5 sequence (peptide, as listed by the source): as above
Assay: ELISA on coated peptide [cont.]
Method: as §1

| Binder | binding result |
| --- | --- |
| B3 | binds |
| B4 | binds |
| B1 | binds |
| B2 | binds |
| B5 | binds |

Biological target: T1, human CCR8
Assay: cell-based or functional assay
Remark: another data set of the same source

| Binder | IC50 of CCL1-induced hCCR8 Gi2 signaling (BRET, HEK-293) |
| --- | --- |
| B3 | 0.046 µg/mL and 0.306 nM |
| B4 | 0.129 µg/mL and 0.86 nM |
| B1 | 0.191 nM and 0.029 µg/mL |
| B2 | 0.023 µg/mL and 0.153 nM |
| B5 | 0.019 µg/mL and 0.129 nM |

Biological target: T1, human CCR8
Assay: flow cytometry, inhibition of hCCL1-AF647 (10 nM) binding to hCCR8-CHO cells
Method: The hCCR8 transfected CHO cell line was dispatched at a density of 1.105 per well in a 96-well plate. Cells were incubated for 30 min at 4° C. with or without anti-CCR8 mAb tested at 10 μg/mL then diluted at 1/3. Unbound antibodies were washed away with PBS (Gibco, Villebon-sur-yvette, France) supplemented by 2% Fetal Bovine Serum (Invitrogen by Thermofisher Scientific, Illkirch-Graffenstaden, France) and 2 mM EDTA. […] After washing unbound ligands, CCL1 bound detection is quantified on a MacsQuant16 (Miltenyi, Gladbach, Germany) (R1 channel, 5 000 events per acquisition).
For IC₅₀ determination, a concentration response curve is performed using 8 concentrations of mAb. Curves are fitted and IC₅₀ of CCL1 binding blocking activity is calculated using the sigmoidal dose-response (variable slope) model on GraphPad Prism 9 (GraphPad Software, San Diego, CA, USA).

| Binder | IC50 |
| --- | --- |
| B3 | ~0.6 µg/mL and 4.01 nM |
| B4 | 0.72 µg/mL and 4.82 nM |
| B1 | 0.83 µg/mL and 5.55 nM |
| B2 | 1.02 µg/mL and 6.83 nM |
| B5 | 0.75 µg/mL and 5.01 nM |

Biological target: T1, human CCR8
Assay: cell-based or functional assay
Remark: another data set of the same source

| Binder | extrapolated top plateau of hCCL1 curve with 5 µg/mL mAb, protocol #3 |
| --- | --- |
| B3 | 855 % of hCCL1 (100 nM) |
| B4 | 2880 % of hCCL1 (100 nM) |
| B1 | 640000 % of hCCL1 (100 nM) |
| B2 | 760000 % of hCCL1 (100 nM) |
| B5 | 135000 % of hCCL1 (100 nM) |

Biological target: T1, human CCR8
Assay: flow cytometry, hCCR8-transfected CHO-K1 cells
Method: Briefly, 1.10⁵ cells per well in a 96 well plate were incubated with a dilution of unconjugated anti-CCR8 mAb at 10 μg/mL then diluted at 1/3.33, 4 dilution points (during 30 min at 4° C.). In human activated T cells model, prior to mAb incubation, cells were first incubated with 200 nM of hCCL1 (R&D Systems, Minneapolis, MN, USA) or buffer PBS (Invitrogen by Thermofisher Scientific, Illkirch-Graffenstaden, France) supplemented by 2% Fetal Bovine Serum (Invitrogen by Thermofisher Scientific, Illkirch-Graffenstaden, France) and 2 mM EDTA (Invitrogen by Thermofisher Scientific, Illkirch-Graffenstaden, France) during 1 hour at 4° C. To determine EC50 value, 8 concentrations of anti-CCR8 mAb were tested. Unbound antibodies were washed away with PBS (Invitrogen by Thermofisher Scientific, Illkirch-Graffenstaden, France) supplemented by 2% Fetal Bovine Serum (Invitrogen by Thermofisher Scientific, Illkirch-Graffenstaden, France) and 2 mM EDTA (Invitrogen by Thermofisher Scientific, Illkirch-Graffenstaden, France). Subsequently, cells are centrifuged (5 min at 400 g) and bound antibody is detected with F(ab′)2-Goat anti-Mouse IgG (H+L) Cross-Adsorbed Secondary Antibody, Alexa Fluor 488 (dilution 1/500) (Invitrogen by Thermofisher Scientific, Illkirch-Graffenstaden, France) or with F(ab′)₂-Goat anti-Human IgG Fc Secondary Antibody, PE (Invitrogen by Thermofisher Scientific, Illkirch-Graffenstaden, France) (dilution 1/1000) at 4° C. for 30 min. Detection reagent is washed away and cells are centrifuged (5 min at 400 g) and resuspended in 30 μL PBS. Bound detection antibody is quantified on a MacsQuant16 (Miltenyi, Gladbach, Germany) (B1 or B2 channel, 5000 events per acquisition). During the experiment, the respective isotype mAb controls (mouse IgG1, mouse IgG2a, mouse IgG2b, mouse IgG3 or human IgG1) (Biolegend, Amsterdam, The Netherlands) are included to exclude any unspecific binding events. EC50 values were determined via nonlinear fit “log (agonist) vs.response—Variable slope (four parameters)” function of Graphpad prism. EC50 values were not constantly determined in the same experiments.

| Binder | % positive cells [%] | MFI fold change to isotype ctrl [fold] |
| --- | --- | --- |
| B3 | 56.2 | 4.78 |
| B4 | 76.2 | 8.37 |
| B1 | 90.6 | 22.7 |
| B2 | 72.8 | 6.32 |
| B5 | 73.4 | 6.52 |

Biological target: T1, human CCR8
Assay: cell-based or functional assay
Remark: another data set of the same source

| Binder | residual hCCL1 (100 nM) Gi2 response, protocol #2, mAb 0.08 µg/mL [%] | residual hCCL1 (100 nM) Gi2 response, protocol #2, mAb 0.4 µg/mL [%] | residual hCCL1 (100 nM) Gi2 response, protocol #2, mAb 10 µg/mL [%] | residual hCCL1 (100 nM) Gi2 response, protocol #3, mAb 0.05 µg/mL [%] | residual hCCL1 (100 nM) Gi2 response, protocol #3, mAb 0.5 µg/mL [%] | residual hCCL1 (100 nM) Gi2 response, protocol #3, mAb 5 µg/mL [%] |
| --- | --- | --- | --- | --- | --- | --- |
| B3 | 104 | 46 | 28 | 80 | 57 | 45 |
| B4 |  |  |  | 102 | 98 | 84 |
| B1 | 60 | 36 | 19 | 74 | 68 | 48 |
| B2 | 81 | 69 | 44 | 77 | 57 | 49 |
| B5 | 99 | 102 | 95 | 102 | 97 | 67 |
